We go through two molecules from PMC13750308 (2026).

What is called Kd is the free concentration of one partner at which half of the binding sites on the other are occupied at equilibrium, for simple one-to-one binding.

Assay [1] deals with Centrobin peptide motif (Homo sapiens) (UniProt Q8N137). The conditions noted are these: cited from earlier work.
In a further assay the target is T1, Cep192 IDR+ASH8 (Homo sapiens, UniProt Q8TEP8).
T1 chain: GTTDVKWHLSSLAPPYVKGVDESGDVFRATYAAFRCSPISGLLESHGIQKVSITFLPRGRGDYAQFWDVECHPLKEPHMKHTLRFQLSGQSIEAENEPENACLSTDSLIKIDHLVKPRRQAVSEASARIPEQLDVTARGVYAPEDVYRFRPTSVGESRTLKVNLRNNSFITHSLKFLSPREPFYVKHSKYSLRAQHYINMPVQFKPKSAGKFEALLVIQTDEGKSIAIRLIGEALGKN
Description: GFP-Trap bead supernatant depletion pull-down with western blot. On the technique in general: In western blotting, separated proteins are transferred to a membrane and probed.

For TRIM37 MATH (from UniProt O94972), the Kd in assay [1] was 14 µM.

B1: TRIM37 (protein)
chain: MDEQSVESIAEVFRCFICMEKLRDARLCPHCSKLCCFSCIRRWLTEQRAQCPHCRAPLQLRELVNCRWAEEVTQQLDTLQLCSLTKHEENEKDKCENHHEKLSVFCWTCKKCICHQCALWGGMHGGHTFKPLAEIYEQHVTKVNEEVAKLRRRLMELISLVQEVERNVEAVRNAKDERVREIRNAVEMMIARLDTQLKNKLITLMGQKTSLTQETELLESLLQEVEHQLRSCSKSELISKSSEILMMFQQVHRKPMASFVTTPVPPDFTSELVPSYDSATFVLENFSTLRQRADPVYSPPLQVSGLCWRLKVYPDGNGVVRGYYLSVFLELSAGLPETSKYEYRVEMVHQSCNDPTKNIIREFASDFEVGECWGYNRFFRLDLLANEGYLNPQNDTVILRFQVRSPTFFQKSRDQHWYITQLEAAQTSYIQQINNLKERLTIELSRTQKSRDLSPPDNHLSPQNDDALETRAKKSACSDMLLEGGPTTASVREAKEDEEDEEKIQNEDYHHELSDGDLDLDLVYEDEVNQLDGSSSSASSTATSNTEENDIDEETMSGENDVEYNNMELEEGELMEDAAAAGPAGSSHGYVGSSSRISRRTHLCSAATSSLLDIDPLILIHLLDLKDRSSIENLWGLQPRPPASLLQPTASYSRKDKDQRKQQAMWRVPSDLKMLKRLKTQMAEVRCMKTDVKNTLSEIKSSSAASGDMQTSLFSADQAALAACGTENSGRLQDLGMELLAKSSVANCYIRNSTNKKSNSPKPARSSVAGSLSLRRAVDPGENSRSKGDCQTLSEGSPGSSQSGSRHSSPRALIHGSIGDILPKTEDRQCKALDSDAVVVAVFSGLPAVEKRRKMVTLGANAKGGHLEGLQMTDLENNSETGELQPVLPEGASAAPEEGMSSDSDIECDTENEEQEEHTSVGGFHDSFMVMTQPPDEDTHSSFPDGEQIGPEDLSFNTDENSGR
Molecule B1 registered a Kd with Cep192 IDR+ASH8 of 0.075 µM.
